Assay results reported in paper PMC12990809.

Tests used:
Assay in all cases: pulldown
[1] = biological target: T1, SCL30 (Arabidopsis thaliana) (UniProt Q8L3X8); conditions: 20 nM protein, 1.5 uM RNA pool; 20 mM HEPES pH 7.8, 70 mM KCl, 10 mM NaCl, 10% glycerol, 2 mM DTT, 0.1 ug/uL BSA; 30 min, 4 C
T1 sequence: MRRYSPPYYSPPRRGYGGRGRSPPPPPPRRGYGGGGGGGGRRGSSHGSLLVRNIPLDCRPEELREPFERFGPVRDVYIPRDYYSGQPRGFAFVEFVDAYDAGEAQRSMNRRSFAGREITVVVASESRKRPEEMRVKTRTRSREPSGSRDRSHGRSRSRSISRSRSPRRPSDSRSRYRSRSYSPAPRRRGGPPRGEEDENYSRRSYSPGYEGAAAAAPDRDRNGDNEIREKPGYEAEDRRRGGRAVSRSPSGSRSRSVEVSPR

[2] = test system: T2, PK15111.1 (Cannabis sativa); conditions: 20 nM protein, 1.5 uM RNA pool; 20 mM HEPES pH 7.8, 70 mM KCl, 10 mM NaCl, 10% glycerol, 2 mM DTT, 0.1 ug/uL BSA; 30 min, 4 C
T2 sequence: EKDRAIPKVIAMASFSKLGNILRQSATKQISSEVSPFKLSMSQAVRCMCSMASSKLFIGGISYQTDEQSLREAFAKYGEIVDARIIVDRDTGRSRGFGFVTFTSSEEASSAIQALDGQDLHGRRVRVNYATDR

[3] = test system: T3, PK23842.1 (Cannabis sativa); conditions: 20 nM protein, 1.5 uM RNA pool; 20 mM HEPES pH 7.8, 70 mM KCl, 10 mM NaCl, 10% glycerol, 2 mM DTT, 0.1 ug/uL BSA; 30 min, 4 C
T3 sequence: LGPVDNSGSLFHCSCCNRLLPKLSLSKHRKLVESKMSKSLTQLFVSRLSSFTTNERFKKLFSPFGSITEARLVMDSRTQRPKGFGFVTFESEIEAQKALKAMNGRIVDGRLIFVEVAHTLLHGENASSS

[4] = biological target: T4, Smp_032060 (Schistosoma mansoni) (UniProt G4LYM0); conditions: 20 nM protein, 1.5 uM RNA pool; 20 mM HEPES pH 7.8, 70 mM KCl, 10 mM NaCl, 10% glycerol, 2 mM DTT, 0.1 ug/uL BSA; 30 min, 4 C
T4 sequence: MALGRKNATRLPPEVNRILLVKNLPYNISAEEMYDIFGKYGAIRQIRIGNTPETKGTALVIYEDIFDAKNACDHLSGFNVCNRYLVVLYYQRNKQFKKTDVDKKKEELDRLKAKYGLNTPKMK

[5] = biological target: T5, DDB_G0286331 (Dictyostelium discoideum) (UniProt Q54M41); conditions: 20 nM protein, 1.5 uM RNA pool; 20 mM HEPES pH 7.8, 70 mM KCl, 10 mM NaCl, 10% glycerol, 2 mM DTT, 0.1 ug/uL BSA; 30 min, 4 C
T5 sequence: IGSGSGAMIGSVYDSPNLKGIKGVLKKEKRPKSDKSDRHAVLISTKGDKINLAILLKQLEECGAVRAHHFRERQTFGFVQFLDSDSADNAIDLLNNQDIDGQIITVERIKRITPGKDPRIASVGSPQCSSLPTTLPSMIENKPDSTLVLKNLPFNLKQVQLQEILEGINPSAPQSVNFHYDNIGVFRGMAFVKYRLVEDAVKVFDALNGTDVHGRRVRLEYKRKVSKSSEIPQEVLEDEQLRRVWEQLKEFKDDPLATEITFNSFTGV

[6] = biological target: T6, PK15181.1 (Cannabis sativa) (UniProt A0A7J6E558); conditions: 20 nM protein, 1.5 uM RNA pool; 20 mM HEPES pH 7.8, 70 mM KCl, 10 mM NaCl, 10% glycerol, 2 mM DTT, 0.1 ug/uL BSA; 30 min, 4 C
T6 sequence: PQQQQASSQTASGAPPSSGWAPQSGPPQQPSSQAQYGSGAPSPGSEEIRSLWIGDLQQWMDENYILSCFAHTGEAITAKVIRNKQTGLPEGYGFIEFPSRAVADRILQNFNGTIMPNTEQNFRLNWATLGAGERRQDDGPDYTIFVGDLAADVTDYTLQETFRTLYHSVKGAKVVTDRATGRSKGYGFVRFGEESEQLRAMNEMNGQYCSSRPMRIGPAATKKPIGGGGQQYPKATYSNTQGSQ

HNRNPA1L2 (Homo sapiens) = HNRNPA1L2 (Homo sapiens) (UniProt Q32P51); conditions: 20 nM protein, 1.5 uM RNA pool; 20 mM HEPES pH 7.8, 70 mM KCl, 10 mM NaCl, 10% glycerol, 2 mM DTT, 0.1 ug/uL BSA; 30 min, 4 C (protocol of this paper; not …); cited from earlier work
Chain of HNRNPA1L2 (Homo sapiens) (Q32P51 1-226): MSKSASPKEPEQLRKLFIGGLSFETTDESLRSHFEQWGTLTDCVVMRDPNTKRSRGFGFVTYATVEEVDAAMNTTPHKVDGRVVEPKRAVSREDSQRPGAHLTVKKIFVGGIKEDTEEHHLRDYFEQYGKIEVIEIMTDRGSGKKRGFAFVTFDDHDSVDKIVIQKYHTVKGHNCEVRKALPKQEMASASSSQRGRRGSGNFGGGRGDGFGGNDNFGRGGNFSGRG

[7] = biological target: T7, PK27686.1 K290R (Cannabis sativa) (UniProt A0A7J6ICA3); conditions: 20 nM protein, 1.5 uM RNA pool; 20 mM HEPES pH 7.8, 70 mM KCl, 10 mM NaCl, 10% glycerol, 2 mM DTT, 0.1 ug/uL BSA; 30 min, 4 C
T7 sequence: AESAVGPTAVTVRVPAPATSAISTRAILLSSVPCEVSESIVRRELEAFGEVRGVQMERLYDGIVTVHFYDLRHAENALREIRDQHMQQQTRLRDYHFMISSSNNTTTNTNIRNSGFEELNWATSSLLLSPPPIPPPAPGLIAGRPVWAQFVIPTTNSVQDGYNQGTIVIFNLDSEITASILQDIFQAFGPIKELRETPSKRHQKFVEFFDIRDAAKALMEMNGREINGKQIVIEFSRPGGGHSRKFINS

[8] = biological target: T8, PFI1175c (Plasmodium falciparum) (UniProt Q8I2R8); conditions: 20 nM protein, 1.5 uM RNA pool; 20 mM HEPES pH 7.8, 70 mM KCl, 10 mM NaCl, 10% glycerol, 2 mM DTT, 0.1 ug/uL BSA; 30 min, 4 C
T8 sequence: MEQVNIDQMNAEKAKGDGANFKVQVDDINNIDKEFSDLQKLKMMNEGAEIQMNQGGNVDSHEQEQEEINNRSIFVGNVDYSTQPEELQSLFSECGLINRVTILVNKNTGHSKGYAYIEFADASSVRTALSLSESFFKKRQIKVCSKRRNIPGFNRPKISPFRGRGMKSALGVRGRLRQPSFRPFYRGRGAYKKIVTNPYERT

[9] = biological target: T9, PK04894.1 Y197N (Cannabis sativa) (UniProt A0A803PQ48); conditions: 20 nM protein, 1.5 uM RNA pool; 20 mM HEPES pH 7.8, 70 mM KCl, 10 mM NaCl, 10% glycerol, 2 mM DTT, 0.1 ug/uL BSA; 30 min, 4 C
T9 sequence: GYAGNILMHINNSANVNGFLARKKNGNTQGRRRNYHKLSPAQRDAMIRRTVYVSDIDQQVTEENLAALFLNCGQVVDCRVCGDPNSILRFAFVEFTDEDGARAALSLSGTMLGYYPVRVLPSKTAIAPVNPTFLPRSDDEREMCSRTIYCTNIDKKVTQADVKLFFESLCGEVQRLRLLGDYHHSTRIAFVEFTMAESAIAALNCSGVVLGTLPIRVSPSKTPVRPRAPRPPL

AGAAGA [RNAcompete motif RNCMPT00382]
binding signal (z-score (mean of top ten 7-mers)) [1]: 7.94

AAGUAGA [RNAcompete motif RNCMPT00368]
binding signal (z-score (mean of top ten 7-mers)) [2]: 6.73

AAUCCA [RNAcompete motif RNCMPT00372]
binding signal (z-score (mean of top ten 7-mers)) [3]: 6.16

UUUUNCC [RNAcompete motif RNCMPT00396]
binding signal (z-score (mean of top ten 7-mers)) [4]: 9.57

AUAAAC [RNAcompete motif RNCMPT00351]
binding signal (z-score (mean of top ten 7-mers)) [5]: 8.36

UUUUUU [RNAcompete motif RNCMPT00345]
binding signal (z-score (mean of top ten 7-mers)) [6]: 9.71

UAGGG [RNAcompete motif RNCMPT00023]
binding signal (z-score (mean of top ten 7-mers)) (HNRNPA1L2 (Homo sapiens)): 7.23

AAUUUU [RNAcompete motif RNCMPT00349]
binding signal (z-score (mean of top ten 7-mers)) [7]: 14.6

AAAAAGA [RNAcompete motif RNCMPT00380]
binding signal (z-score (mean of top ten 7-mers)) [8]: 9.25

AAUAAG [RNAcompete motif RNCMPT00346]
binding signal (z-score (mean of top ten 7-mers)) [9]: 15.1
